Laboratory results taken from PMC2211785 (The Journal of Experimental Medicine, 2004).

Target: JNK-2 (human (endogenous in HUVEC), UniProt P45984 1-424)
Test: co-IP

fold increase of association by PEDF combined with VEGF or bFGF: > 20 fold
B1: NFATc2 (natural protein)
chain: MNAPERQPQPDGGDAPGHEPGGSPQDELDFSILFDYEYLNPNEEEPNAHKVASPPSGPAYPDDVLDYGLKPYSPLASLSGEPPGRFGEPDRVGPQKFLSAAKPAGASGLSPRIEITPSHELIQAVGPLRMRDAGLLVEQPPLAGVAASPRFTLPVPGFEGYREPLCLSPASSGSSASFISDTFSPYTSPCVSPNNGGPDDLCPQFQNIPAHYSPRTSPIMSPRTSLAEDSCLGRHSPVPRPASRSSSPGAKRRHSCAEALVALPPGASPQRSRSPSPQPSSHVAPQDHGSPAGYPPVAGSAVIMDALNSLATDSPCGIPPKMWKTSPDPSPVSAAPSKAGLPRHIYPAVEFLGPCEQGERRNSAPESILLVPPTWPKPLVPAIPICSIPVTASLPPLEWPLSSQSGSYELRIEVQPKPHHRAHYETEGSRGAVKAPTGGHPVVQLHGYMENKPLGLQIFIGTADERILKPHAFYQVHRITGKTVTTTSYEKIVGNTKVLEIPLEPKNNMRATIDCAGILKLRNADIELRKGETDIGRKNTRVRLVFRVHIPESSGRIVSLQTASNPIECSQRSAHELPMVERQDTDSCLVYGGQQMILTGQNFTSESKVVFTEKTTDGQQIWEMEATVDKDKSQPNMLFVEIPEYRNKHIRTPVKVNFYVINGKRKRSQPQHFTYHPVPAIKTEPTDEYDPTLICSPTHGGLGSQPYYPQHPMVAESPSCLVATMAPCQQFRTGLSSPDARYQQQNPAAVLYQRSKSLSPSLLGYQQPALMAAPLSLADAHRSVLVHAGSQGQSSALLHPSPTNQQASPVIHYSPTNQQLRCGSHQEFQHIMYCENFAPGTTRPGPPPVSQGQRLSPGSYPTVIQQQNATSQRAAKNGPPVSDQKEVLPAGVTIKQEQNLDQTYLDDVNEIIRKEFSGPPARNQT
